The supplement of paper PMC7877785
± gives the uncertainty stated by the source.

Experiment: self-splicing fitness, log relative to wild type (ln ratio); higher = more splicing; Tetrahymena group I intron in knt gene, E. coli kanamycin selection, DiMSum; sequences stand for … in CUCUCU…GGAGGGAAAAGUUAUCAGGCAUGCACCUGGUAGCUAGUCUUUAAACCAAUAGAUUGCAUCGGUUUAAAAGGCAAGACCGUCAAAUUGCGGGAAAGGGGUCAACAGCCGUUCAGUACCAAGUCUCAGGGGAAACUUUGAGAUGGCCUUGCAAAGGGUAUGGUAAUAAGCUGACGGACAUGGUCCUAACCACGCAGCCAAGUCCUAAGUCAACAGAUCUUCUGUUGAUAUGGAUGCAGUUCACAGACUAAAUGUCGGUCGGGGAAGAUGUAUUCUUCUCAUAAGAUAUAGUCGGACCUCUCCUUAAUGGGAGCUAGCGGAUGAAGUGAUGCAACACUGGAGCCGCUGGGAACUAAUUUGUAUGCGAAAGUAUAUUGAUUAGUUUUGGAGUACUCGUGGUCG
Method in brief: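 Colonies from six replicate transformations of E. coli BL21(DE3) were pooled and amplicon-sequenced on an Illumina HiSeq 2500. The library placed an intron with all eight P1ex-region nucleotides randomised inside the knt kanamycin-resistance gene on pET-22b(+), and cells grew overnight at 37°C or 30°C on LB agar with or without 25 μg/mL kanamycin (plus 100 μg/mL carbenicillin, 50 μM IPTG, 0.2% rhamnose). Fitness is the DiMSum error-weighted combination of wild-type-normalised replicate fold changes, kanamycin versus none.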

Row | Sequence | self-splicing fitness (ln) (30 °C) | self-splicing fitness (ln) (37 °C)
1 | CUUUAGCAAUAUUACGUAUG | -0.82 ± 0.11 | -0.4 ± 0.12
2 | GAAAAGCAAUAUUACGAAAC | -2.88 ± 0.14 | -0.0376 ± 0.11
3 | GAAAAGCAAUAUUACGACGC | -0.132 ± 0.069 | 0.493 ± 0.093
4 | GAAAAGCAAUAUUACGACUG | -0.58 ± 0.094 | -0.857 ± 0.1
5 | GAAAAGCAAUAUUACGACUU | -0.183 ± 0.063 | 0.52 ± 0.096
6 | GAAAAGCAAUAUUACGAGAC | -2.59 ± 0.29 | -0.985 ± 0.16
7 | GAAAAGCAAUAUUACGAUAG | -3.28 ± 0.15 | -1.69 ± 0.15
8 | GAAAAGCAAUAUUACGAUCU | -0.472 ± 0.075 | -0.478 ± 0.085
9 | GAAAAGCAAUAUUACGCAGC | -2.9 ± 0.17 | -1.74 ± 0.19
10 | GAAAAGCAAUAUUACGCCUG | -0.929 ± 0.081 | -0.273 ± 0.11
11 | GAAAAGCAAUAUUACGCGGC | -3.33 ± 0.19 | -3.07 ± 0.26
12 | GAAAAGCAAUAUUACGCGGU | -3.4 ± 0.21 | -1.21 ± 0.16
13 | GAAAAGCAAUAUUACGCUCU | -2.07 ± 0.13 | -1.27 ± 0.13
14 | GAAAAGCAAUAUUACGGAAG | -3.88 ± 0.31 | -1.32 ± 0.16
15 | GAAAAGCAAUAUUACGGACA | -0.576 ± 0.056 | -0.269 ± 0.064
16 | GAAAAGCAAUAUUACGGACG | -1.05 ± 0.092 | -0.401 ± 0.1
17 | GAAAAGCAAUAUUACGGAGU | -3.18 ± 0.15 | -2.11 ± 0.15
18 | GAAAAGCAAUAUUACGGCAA | -0.142 ± 0.1 | -0.719 ± 0.11
19 | GAAAAGCAAUAUUACGGGUU | -1.27 ± 0.095 | -1.22 ± 0.12
20 | GAAAAGCAAUAUUACGUCAC | -2.2 ± 0.19 | -1.64 ± 0.31
21 | GAAAAGCAAUAUUACGUCUC | -1.3 ± 0.073 | -0.38 ± 0.092
22 | GAAAAGCAAUAUUACGUGUG | -2.31 ± 0.062 | -1.06 ± 0.072
23 | GAAAAGCAAUAUUACGUUUU | -3.8 ± 0.18 | -2.4 ± 0.13
24 | GAACAGCAAUAUUACGAACC | -1.6 ± 0.12 | -0.809 ± 0.13

Row | Sequence | self-splicing fitness (ln) (30 °C) | self-splicing fitness (ln) (37 °C)
25 | GAACAGCAAUAUUACGACAU | -0.575 ± 0.011 | -0.153 ± 0.032
26 | GAACAGCAAUAUUACGACGA | -0.494 ± 0.085 | 0.265 ± 0.097
27 | GAACAGCAAUAUUACGACUG | -1.45 ± 0.085 | 0.155 ± 0.1
28 | GAACAGCAAUAUUACGAGAU | -3.55 ± 0.12 | -1.4 ± 0.09
29 | GAACAGCAAUAUUACGAGUA | -2.87 ± 0.12 | -1.98 ± 0.1
30 | GAACAGCAAUAUUACGCAUC | -2.79 ± 0.095 | -2.01 ± 0.12
31 | GAACAGCAAUAUUACGGAGC | -1.93 ± 0.057 | -1.13 ± 0.083
32 | GAACAGCAAUAUUACGGCGU | -0.302 ± 0.083 | 0.212 ± 0.097
33 | GAACAGCAAUAUUACGGGAC | -2.66 ± 0.085 | -1.36 ± 0.085
34 | GAACAGCAAUAUUACGGGCA | -0.822 ± 0.096 | -0.223 ± 0.093
35 | GAACAGCAAUAUUACGGGUA | -1.54 ± 0.07 | -1.32 ± 0.076
36 | GAACAGCAAUAUUACGUAGU | -1.55 ± 0.06 | -0.106 ± 0.075
37 | GAACAGCAAUAUUACGUCCG | -1.5 ± 0.13 | -0.784 ± 0.17
38 | GAACAGCAAUAUUACGUCGG | -2.64 ± 0.16 | -1.85 ± 0.28
39 | GAACAGCAAUAUUACGUCGU | -1.5 ± 0.065 | -0.479 ± 0.078
40 | GAACAGCAAUAUUACGUUGC | -3.47 ± 0.19 | -3.4 ± 0.29
41 | GAAGAGCAAUAUUACGAAAU | -3.79 ± 0.24 | -1.95 ± 0.23
42 | GAAGAGCAAUAUUACGACUA | -2.15 ± 0.29 | -1.92 ± 0.24
43 | GAAGAGCAAUAUUACGAUCC | -1.84 ± 0.39 | –
44 | GAAGAGCAAUAUUACGCAGG | -1.89 ± 0.32 | –
45 | GAAGAGCAAUAUUACGCCAC | -3.28 ± 0.41 | -2.48 ± 0.41
46 | GAAGAGCAAUAUUACGCGAG | -2.82 ± 0.17 | -2.16 ± 0.23
47 | GAAGAGCAAUAUUACGCGGU | -2.63 ± 0.14 | -2.55 ± 0.25
